Laboratory results from patent EP2801619A1 (Fondazione Edmund Mach, dated 2014).
One block for each binder: values may come before it.

B3: CURVATURE THYLAKOID1A (CURT1A) of Arabidopsis thaliana, endogenous protein in thylakoid membranes (other)
chain: ASSEETSSIDTNELITDLKEKWDGLENKSTVLIYGGGAIVAVWLSSIVVGAINSVPLLPKVMELVGLGYTGWFVYRYLLFKSSRKELAEDIESLKKKIAGSE
notes: Thylakoid membrane protein as found in plant thylakoids; also called At4g01150

How the values were obtained:
[1] = target: B3; assay: 2D-BN/SDS-PAGE of thylakoid multiprotein complexes (Fig. 5b)
[2] = target: the molecule itself; assay: quantification of CURT1A crosslinking products from thylakoids of WT and CURT1A-cmyc overexpressors
[3] = target: the molecule itself; assay: chemical crosslinking (BS3) of thylakoid proteins, SDS-PAGE and immunoblot, WT against curt1 mutants

- binding result [1]: binds
B1: CURVATURE THYLAKOID1C (CURT1C) of Arabidopsis thaliana, endogenous protein in thylakoid membranes (other)
chain: ASGESSDSSTDLDVVSTIQNVWDKSEDRLGLIGLGFAGIVALWASLNLITAIDKLPVISSGFELVGILFSTWFTYRYLLFKPDRQELSKIVKKSVADILGQ
notes: Thylakoid membrane protein as found in plant thylakoids; also called At1g52220

B2: CURT1A with a C-terminal cmyc tag, expressed in curt1a-2 or WT plants (other)
chain: ASSEETSSIDTNELITDLKEKWDGLENKSTVLIYGGGAIVAVWLSSIVVGAINSVPLLPKVMELVGLGYTGWFVYRYLLFKSSRKELAEDIESLKKKIAGSE
notes: Coding region under the 35S promoter; also called CURT1A-cmyc; cmyc-tagged CURT1A; not shown: C-terminal cmyc tag from vector pPCV812deltaNotI-Lola
- binding result [2]: binds

Binder: B3
- binding result [3]: binds
